Protein production data for 19 sequences are collected here from a protein production outcome set (Wang et al. 2014).

A short description of the data set: label from the status in PepcDB records.
In the case of “MPVTEISEKLSVSPQPSIEDIQSLRDQGFKTLINNRPDNEDASQPNTRAERQQAKQCDLSYAFIPVTADTITEADVRAFQRAVDESDGPVLAHCQTGKRALNLYLIGEVLDGSMSVDKVVEFGRSRGFDTSAAAAWLKQHAARRPQVKGFFDKRTWSVQYVISDPLTRKCAIVDPVLDFDEKSGATATINADAILDYIRDNGLTVEWILDTHPHADHFSAAHYLQEKTGARTAIGERVVDVQKLWKGIYNWPELATDGSQWDRLFAHGETFEVGSIDAKVLFSPGHTLASITYVIGDAAFVHDTLFMPDSGTARADFPGGDARVLWKSIQEILALPAETRIFTGHDYQPEGRAPRWESTVAEQKKSNPHLAGVNEQEFVALRTTRDKTLPMPKLILHALQVNIRGGRLPEPEANGKRYLKFPLDALQGAAWE”, the protein production result is listed as “failed”.

As for “MSATFSPTAVTDLKDIQDVERLMGRIKEARAAVGEVIFGQEAVVDEVLVTLLAGGHALLIGLPGLAKTKLVQTLGTVVGLRDKRVQFTPDLMPADILGSEVLEEDAAGQRGFRFLPGPVFCQLLMADEINRASPRTQSALLQAMQEHRVSVAGHYHDLPAPFHVLATQNPIEQEGTYPLPEAQLDRFLMQVDVGYPDEAAERRMLAATTGVHQPEARAVMTPAELQAAQALVRRVPVGDSVVDAILSLVRAGRPESSPLPEVRDWVAWGPGPRASQALTLAVRARALLDGRFAPSIEDVIALAHPILRHRMALSFGARADGVTLGRVVDRLIDKIALEHHHHHH”, the protein production result is recorded as “not failed”.

Take “GNNVSDADIRAIKHSERRLRNHFLPQSLFSHCGFEQAFNYKYLRIMRIAVHPQIQQQGIGAQFIHYIELLAKEQGVDFIGASFGVNPELLSFWLNAGFSTARIGFTKDKASGEHSALLIKGL”: the protein production result is “failed”.

As for “MKTDWSHYLSVEMESTISNELSILCGAEVAFLGYSCSGKPYTFGSPSFQAVAERFLNREASSSLQRSVMNAHQQAKIQELCKVYNRMVEEAKTEEAKVKKAAALAETMPVDEDAWWKVDPKEVEDHEEAKKIMEKCEGLYEKLCNEAAARIQRGDAENNNK”, the protein production entry was “failed”.

Regarding “MKNSFFSKFTPKEPKFFPLLKQLSDVLSASSVLLVESMEHDLPTERADYYKQIKDMEREGDRLTHLIFDELSTTFITPFDREDIHDLASCMDDVIDGINSSAKRIVIYNPRPISESGKELSRLIHEEAINIGKAMDELETFRKNPKPLRDYCTQLHDIENQADDVYELFITKLFEEEKDCIELIKIKEIMHELEKTTDAAEHVGKILKNLIVKYS”, the protein production entry is reported as “not failed”.

Turning to “MVIPALPKIEDQFSTSATTVAWITSAYLIVGAVASPVFGKLGDRYGKKKIYLLAIAFYSLAVLIAGFSTNIYMLIFARAIQGLGFAVFPIAIAIITDLFPRERVAWAQSILSATLALGPALGLLIGAYIVQDLGWQYAFHTAFILSIILMFISIRFIQEIPSKTKERIDYLGAVFLMLAVISLLVYLTEGPSIGWFSATQFSLILTSIISFGVFIFVERRVAEPLMKLDLFRIRNIMVANISGLIAGTAMFLMFIGLTYYAQLPKPYGLGLSIIDSGLLMAPVALTMMVVGPIVGRLINSTGPKPLLIFGSIVGIIGFLLLNAFNSTNIQVLLDTVVASVGIISLMIPLVNMVAVSLPEDQRGVGIGMNTLIRSIGSSVGPVISTVFMDTYTAWIGYLFNNQYLPIASVPSSEAFHYIYLVGICLMFINLLVALLTKNYVLKQKVKTTESVV”, the protein production entry is reported as “failed”.

As for “VKMSDKWIEIEEILSGLIGDLTIAVTVLKDYEGKAFLREPQHQTKRQCIWRLCVYSIVINCRKYVELNQKYGKEFQALIPGHNHIRGVYNNEINKNTAIKKLRNHCVAHVSDKSKYLKPAEVQEEIIKMFDGNFADEFLDWICPDNISTTDKSESLVGVIELLRDAVSAKL”, the protein production result was “not failed”.

On to “MEIINLTYIPLGVYNYYKSNNQEVKMQTIDISELELLTESENPVIVDVREDFEYNSGHVPNAKNIPLSQLEERYAEITDGTYLICQSGARSARACQYLSTKGIDTINISGGTIAWNGP”, for which the protein production result was “failed”.

In the case of “TLEQLPSAQSTLVSLDANNGALRALVGGFSFTANKFNRATQARRQPGSSFKPFVYSAALEKGFNPASIVPDAPVIFRDRRGHTWSPQNDDGKFQGPMRIRDALVQSRNLVSVRLLDAIGIDFARNYITQFGFEENEIPPNLSMSLGTASLTPLSIARGYAVFANGGFRIDPWLIDEIHDREHKLIFKNNPKVACSSCTSANTNVTQSTSHLVDGFNFGAPTKTEPSKPVKNNNEPTQTIPSPDPNTPMAPRAIDERVVFQLVSMMRDVVLRGTATAARSLNRQDIAGKTGSTNEHRDAWFSGFGGPYVTTVWVGRDDFQSLGYREYGGKAALPIWIEYMRTALKDKPIARN”, the protein production result was “failed”.

In the case of “TLGKETKTTVHKFGLEPPSELIQKQLRANLDDDIWEVIRSRKIDGEHVILDKDYFFRKHVPHLTKEICENSIYEYIEGELGLSISYAQKEIVAEPCTDEDRELLDLRGYDHMVVVRNYVFLEDTSLFQYTESRHRLDKFRFVDFARRGK”, the protein production entry is reported as “not failed”.

“MNFDSYIFDFDGTLIDTTTCHVKATQSAFKRLNLDEPTEQAILHTYHLNLYNNFKALASHELSFYQIEKLIDEYNHCFSNDEIHQSKEYTGISEVLKFLHNQKKKIFVVSNKETLTTQKYLDYLGLSRFITDSLGVCIKNEDKLLCETIQNLIQKHHLMIGKTVYIGDTAQDIKSANQAHVQTCAVTWGAQSAHELLHEDPHYVVNDPEEFLTIL”: the protein production result is on record as “failed”.

“MGNQFSINRNRPANAGEAHASSTEAKPAPDAASPSRQVRVATAPSILEGLRKLRLPFNFGARVPPLPEETWAEIARRVDTKTLHRMRAVSKTLKAAADTEIRQLTVNTVEALQAAKRYACLETLKMDGYFGDADLEGLPASLRELDLFSTRYVSAKGLAHLSKLPLVRLKVRANGIHAEAARALAASTTLTALDIRGNGIGDAGAQALAANTSITSLDASFNDIGVAGARALAANTTLTSLDLGFNAIGDEGLQALATNTSLTSLTVGSCEIGDAGAAALANNTALTSVDLTCNHIGEEGAEGLAANTVLTSLDLTRNSISDRGAAALAGNTTLTSLCVNFNDIYGRGARWLAENTTLTTLDISYNPIGDWGALGLADNMTLRSLSVVAGRIGVEGARALAGNTTLTTLDISVNAIGNEGAQALAANATLTTLSLRSCELRAAAAEAFKANTTLASLDIGENRIEAAGAQALADNTALTTLRVTGNQIGMAGAQALAANRSLTKLNISQNDIRSAGAQALAANTSLTSLDVSSASIGAAGAQALAANTSITWLNINDNHIGDAGAQALAAHPALTSLYACDNFIGTAGVQALAANTRLTSLSIWGNRIGDAGVKALAANTTLTKLTIGKRVDKQLGEQIGDLAWQELMASVDRSGMTFHSL”: the protein production result is on record as “failed”.

For the sequence “ALPELRLEQFIITGASKRGWSAWLTAMADDRVIAIVPSVIDVADTSSMLEGLRKRYGGSWPLALWSYQAAEVLQQLGSPAFARLMALMDPMQYLDEPGARLKIPKYLVSASGDDFFAPDHATDYLQRLPGQTSLRVLPNSDHGGVRAHVVTTLVPMVQRIQASL”, the protein production result is “failed”.

In the case of “ASVVLDFLTSDDFPAVAELGAAIWHKHFIGMISREQIDYMVSSRYTPQRLGRYLDAPDRWFRLLRVDGRPVGYCSYALTGQPGEMKLEQLYLLEEMRGWGLGGRMMDEAEAAARALGCATLMLTVNRHNAGAIAVYQKRGFAVREEVVADIGNGFVMDDYMMEKLLSR”, the protein production entry is recorded as “failed”.

With “MSLGLDYEPSHLMFLVTVLDDRDGEVLGDAIQKLIEREEVLACHAVPCVTKKNRPGHVLVVLVDGGEDPDRVAEDVARDIMVLTGSTGVDRFDADGVYSVPSRFEDVRVVYGEREWRVSVKIAETEEGEVVTVKAEFDECREIGEETGIPPREVKAMVEAAARVGGWVDLKEREIKVQEGHHHHHH”, the protein production result was “not failed”.

As for “MDLPVDEWKSYLLQKWASLPTSVQVTISTAETLRDIFLHSSSLLQPEDELFLKRLSKGYLVGKDSDAPLFYREEGNKKFQEKDYTGAAVLYSKGVSHSRPNTEDMSLCHANRSAALFHLGQYETCLKDINIAQTHGYPERLQPKIMLRKAECLVALGRLQEASQTISDLERNFTATPALADVLPQTLQRNLHRLKMKMQEKDSLTESFPAALAKTLEDAALREENEQLSNASSSIGLCVDPLKGRCLVATKDILPGELLVQEDAFVSVLNPGELPPPHHGLDSKWDTRVTNGDLYCHRCLKHTLATVPCDGCSYAKYCSQECLQQAWELYHRTECPLGGLLLTLGVFCHIALRLTLLVGFEDVRKIITKLCDKISNKDICLPESNNQVKTLNYGLGESEKNGNIVETPIPGCDINGKYENNYNAVFNLLPHTENHSPEHKFLCALCVSALCRQLEAASLQAIPTERIVNSSQLKAAVTPELCPDVTIWGVAMLRHMLQLQCNAQAMTTIQHTGPKGSIVTDSRQVRLATGIFPVISLLNHSCSPNTSVSFISTVATIRASQRIRKGQEILHCYGPHKSRMGVAERQQKLRSQYFFDCACPACQTEAHRMAAGPRWEAFCCNSCGAPMQGDDVLRCGSRSCAESAVSRDHLVSRLQDLQQQVRVAQKLLRDGELERAVQRLSGCQRDAESFLWAEHAVVGEIADGLARACAALGDWQKSATHLQRSLCVVEVRHGPSSVEMGHELFKLAQIFFNGFAVPEALSTIQKAEEVLSLHCGPWDDEIQELQKMKSCLLDLPPTPVGPAL”, the protein production entry is given as “failed”.

Regarding “MPPQRRRRPEPEAPAPGRRGRRPEKKKSRGKRVLLWTGGSMAFVVLVAGVGGYVYLKHLEGNVSTTDVGTAGSSSFKKDEAFNILIIGTDKRTGEGNEGYGDKGSAGHADTNILLHVAEDRSNATALSIPRDLIVDIPDCETTQEDGTKKVIPGTSGVRFNQSLGDFGRDAGCTMRTVAETTGIKPDHFMMADFNAVKTLTTAVDGVDVCVEHAVDDPKSHLKLPAGESKVEGEQALAFVRTRHAFGNEGDLDRIKVQQQFLGSLMRKMASGDTLTSPTKLVKLAEAATKALTVDSAIGKVGTLKDIALELKKVPTKNITFTTVPVIDNPAEKVKATVVVNEAKGPQVFDMIKNDISFTEVEQQKKKEKAAVAARLKGEKSEPGEVRVRVMNGGAPAGSAQQELAYLQTQAGVSKSENAGNAPADIAKTTLEYAPDQADQARALAEILGLTGAAMKPGESVTNSQGLPTMTLTLGKDFKGAGVKLDGSVKKPDLDTESTADQKLCAS”, the protein production result is recorded as “failed”.

As to “MELFTEAWAQAYCRKLNESEAYRKAASTWEGSLALAVRPDPKAGFPKGVAVVLDLWHGACRGAKAVEGEAEADFVIEADLATWQEVLEGRLEPLSALMRGLLELKKGTIAALAPYAQAAQELVKVAREVA”, the protein production entry is “not failed”.

For “MAVGDQTEQNYLPKKKKSETEDDKRRKKIVPGSLLKAVVRPGGGDSSPVDGDQVIYHCTVRTLDGVVVESTRSESGGRGVPIRDVLGNSKMILGLLEGIPTMHKGEIAMFKMKPEMHYAEIDCPVSAPENFPKDDELHFEIELLDFSKAKIASDDLGVIKKILNEGEGWESPREPYEVKARISAKSGDGHVIFSHTEEPYFFTFGKSEVPKGLEIGIGTMARKEKAVIYVRKQYLTESPLLHIDQDLEEVHFEVELVHFIQVRDMLGDGRLIKRRIRDGRGEFPMDCPLQDSRLSVHYKGMLLNEEKTVFYDSKIDNNDQPLEFSSGEGLVPEGFEMCTRLMLPGEIALVTCPPDYAYDKFPRPPGVSEGAHVQWEIELLGFETPRDWTGLNFQSIMDEADKIRSTGNRLFKEGKFELAKAKYEKVLREFNHVNPQDEDEGKIFGDTRNMLHLNVAACLLKMGEWRKSIETCNKVLEAKPGHVKGLYRRGMAYIAGGEYDDARNDFNMMIKVDKSSEADATAALLKLKQKEQEAESKARKQFKGLFDKRPGEITEVGSEIREESKTIEEVDETKDNDDDETLEEEGATTVSTERKRKWSEKAWPFLKNVMLQIGIQLGVVLIGILIFQFVSAKFT”, the protein production entry is “failed”.
